The results in this text go back to paper PMC2364200.

For the assay, the target named is vitronectin (UniProt P04004).
Chain of UniProt P04004 (P04004 20-478): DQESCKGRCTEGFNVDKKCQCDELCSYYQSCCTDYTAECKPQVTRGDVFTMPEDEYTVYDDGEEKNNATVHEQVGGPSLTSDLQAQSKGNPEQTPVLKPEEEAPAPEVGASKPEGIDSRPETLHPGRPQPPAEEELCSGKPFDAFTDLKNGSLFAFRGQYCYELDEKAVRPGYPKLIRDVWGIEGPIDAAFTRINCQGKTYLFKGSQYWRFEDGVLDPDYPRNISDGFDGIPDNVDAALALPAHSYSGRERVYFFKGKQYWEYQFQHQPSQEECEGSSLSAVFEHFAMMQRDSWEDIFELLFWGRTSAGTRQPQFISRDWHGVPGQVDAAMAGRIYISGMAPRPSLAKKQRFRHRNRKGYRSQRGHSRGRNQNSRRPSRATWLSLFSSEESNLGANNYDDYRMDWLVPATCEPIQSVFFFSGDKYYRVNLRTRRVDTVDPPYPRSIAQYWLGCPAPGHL

Take “avb3 integrin heterodimer with the b3 chimaeric mutant whose cytoplasmic domain is extended by the C-terminal 11 amino acids of b6 (on V3B3S11aa squamous cell carcinoma cells) (from UniProt P06756 31-1048; P05106 27-788; P18564 778-788) (receptor)”: the adhesion of V3B3S11aa cells on vitronectin (C1 null transfectant cells without avb3: 6.52%) was 39.5%, the haptotactic migration of V3B3S11aa cells towards vitronectin (C1 cells: 2.01%) came to 21.8%, the haptotactic migration of V3B3S11aa cells towards vitronectin in the presence of LM609 amounted to 0% and the inhibition of adhesion of V3B3S11aa cells to vitronectin by LM609 (anti-avb3 blocking antibody) was determined as 26%.

As to “avb3 integrin heterodimer, wild type b3 (on V3B3 squamous cell carcinoma cells) (from UniProt P06756 31-1048; P05106 27-788) (receptor)”, the adhesion of V3B3 cells on vitronectin (C1 null transfectant cells without avb3: 6.52%) stood at 38.6%, the haptotactic migration of V3B3 cells towards vitronectin (C1 cells: 2.01%) amounted to 20.3%, the haptotactic migration of V3B3 cells towards vitronectin in the presence of LM609 is 3.92% and the inhibition of adhesion of V3B3 cells to vitronectin by LM609 (anti-avb3 blocking antibody) worked out at 30.6%.
